Drawing on the supplement of paper PMC10567573, this text covers protein stability index for 94 variants.

To fix the notation:
B1: ZNF263 (parent)
chain: EKPYKCPECGEIFAHSSNLLRHQR
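Further: lentivirally expressed fusions sorted by FACS into six bins by GFP to DsRed ratio, PSI derived from sequencing read proportions per bin multiplied by bin number.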

In this data set the parent is B1. In words: protein stability index of a GFP-peptide fusion (GPS, HEK-293T) (PSI 1-6); higher = more stable. As to conditions: c terminus: a fixed tail appended.
As for EKPYKSPECGEIFAHSSNLLRHQR [C6S], the protein stability index was 2.88.

Take EKPYKWPECGEIFAHSSNLLRHQR [C6W]: the protein stability index came out at 2.47.

For the variant EKPYKRPECGEIFAHSSNLLRHQR [C6R], the protein stability index is 3.08. Under EKPYKVPECGEIFAHSSNLLRHQR [C6V] stands 3.35; under EKPYKNPECGEIFAHSSNLLRHQR [C6N], 3.74. Under EKPYKPPECGEIFAHSSNLLRHQR [C6P] stands 3.76. Consider EKPYKQPECGEIFAHSSNLLRHQR [C6Q], for which the protein stability index came out at 3.6. Take EKPYKTPECGEIFAHSSNLLRHQR [C6T]: the protein stability index came out at 3.45.

In the case of EKPYKYPECGEIFAHSSNLLRHQR [C6Y], the protein stability index was 3.05. Under EKPYKCPEPGEIFAHSSNLLRHQR [C9P] stands 3.86; under EKPYKCPEQGEIFAHSSNLLRHQR [C9Q], 4.07; under EKPYKCPEMGEIFAHSSNLLRHQR [C9M], 3.83. For EKPYKCPEAGEIFAHSSNLLRHQR [C9A], the protein stability index stood at 3.62. Under EKPYKCPEHGEIFAHSSNLLRHQR [C9H] stands 2.56; under EKPYKCPERGEIFAHSSNLLRHQR [C9R], 3.73; under EKPYKCPEWGEIFAHSSNLLRHQR [C9W], 2.34. Under EKPYKCPEFGEIFAHSSNLLRHQR [C9F] stands 2.71; under EKPYKCPEKGEIFAHSSNLLRHQR [C9K], 3.5; under EKPYKCPENGEIFAHSSNLLRHQR [C9N], 3.48. Consider EKPYKCPEVGEIFAHSSNLLRHQR [C9V], for which the protein stability index came to 2.92.

Take EKPYKCPEGGEIFAHSSNLLRHQR [C9G]: the protein stability index was determined as 3.84. On to EKPYKCPELGEIFAHSSNLLRHQR [C9L], for which the protein stability index came out at 2.93. As for EKPYKCPETGEIFAHSSNLLRHQR [C9T], the protein stability index came to 3.02.

Take EKPYKCPESGEIFAHSSNLLRHQR [C9S]: the protein stability index came to 3.72. Consider EKPYKCPEEGEIFAHSSNLLRHQR [C9E], for which the protein stability index was 4.06. With EKPYKCPEYGEIFAHSSNLLRHQR [C9Y], the protein stability index stood at 3.45.

For the variant EKPYKCPEIGEIFAHSSNLLRHQR [C9I], the protein stability index stood at 2.72. For EKPYKCPEDGEIFAHSSNLLRHQR [C9D], the protein stability index was determined as 3.74. Take EKPYKCTECGEIFAHSSNLLRHQR [P7T]: the protein stability index came to 1.82.

For the variant EKPYKCYECGEIFAHSSNLLRHQR [P7Y], the protein stability index was found to be 2.7. On to EKPYKCQECGEIFAHSSNLLRHQR [P7Q], for which the protein stability index turned out to be 2.46. As for EKPYKCVECGEIFAHSSNLLRHQR [P7V], the protein stability index turned out to be 2.68. On to EKPYKCIECGEIFAHSSNLLRHQR [P7I], for which the protein stability index is 2.28. For EKPYKCKECGEIFAHSSNLLRHQR [P7K], the protein stability index turned out to be 1.49.

With EKPYKCRECGEIFAHSSNLLRHQR [P7R], the protein stability index was 1.62. EKPYKCSECGEIFAHSSNLLRHQR [P7S]: the protein stability index was found to be 2.8. Under EKPYKCEECGEIFAHSSNLLRHQR [P7E] stands 2.85; under EKPYKCFECGEIFAHSSNLLRHQR [P7F], 2.37. Under EKPYKCHECGEIFAHSSNLLRHQR [P7H] stands 2.25; under EKPYKCCECGEIFAHSSNLLRHQR [P7C], 1.67; under EKPYKCDECGEIFAHSSNLLRHQR [P7D], 3.71. For EKPYKCNECGEIFAHSSNLLRHQR [P7N], the protein stability index is 2.21.

On to EKPYKCLECGEIFAHSSNLLRHQR [P7L], for which the protein stability index turned out to be 2.33.

Take EKPYKCWECGEIFAHSSNLLRHQR [P7W]: the protein stability index came out at 2.29.

For EKPYKCAECGEIFAHSSNLLRHQR [P7A], the protein stability index was determined as 2.24. Take EKPYKCMECGEIFAHSSNLLRHQR [P7M]: the protein stability index came to 2.49.

On to EKPYKCGECGEIFAHSSNLLRHQR [P7G], for which the protein stability index worked out at 2.14.

EKPYKCPNCGEIFAHSSNLLRHQR [E8N]: the protein stability index amounted to 2.1. As for EKPYKCPLCGEIFAHSSNLLRHQR [E8L], the protein stability index turned out to be 2.37. Regarding EKPYKCPMCGEIFAHSSNLLRHQR [E8M], the protein stability index was 1.95. With EKPYKCPYCGEIFAHSSNLLRHQR [E8Y], the protein stability index was determined as 2.86. Under EKPYKCPTCGEIFAHSSNLLRHQR [E8T] stands 2.74; under EKPYKCPICGEIFAHSSNLLRHQR [E8I], 2.04; under EKPYKCPWCGEIFAHSSNLLRHQR [E8W], 1.88. Under EKPYKCPHCGEIFAHSSNLLRHQR [E8H] stands 3.07; under EKPYKCPRCGEIFAHSSNLLRHQR [E8R], 2.85. Under EKPYKCPDCGEIFAHSSNLLRHQR [E8D] stands 3.18.

For the variant EKPYKCPCCGEIFAHSSNLLRHQR [E8C], the protein stability index came to 3.16. In the case of EKPYKCPVCGEIFAHSSNLLRHQR [E8V], the protein stability index is 2.27. For the variant EKPYKCPACGEIFAHSSNLLRHQR [E8A], the protein stability index is 2.51.

Consider EKPYKCPPCGEIFAHSSNLLRHQR [E8P], for which the protein stability index is 2.74. EKPYKCPQCGEIFAHSSNLLRHQR [E8Q]: the protein stability index came out at 1.71. For the variant EKPYKCPFCGEIFAHSSNLLRHQR [E8F], the protein stability index is 2.

On to EKPYKCPSCGEIFAHSSNLLRHQR [E8S], for which the protein stability index is 2.28.

Turning to EKPYKCPKCGEIFAHSSNLLRHQR [E8K], the protein stability index came to 3.12. As for EKPYKCPECDEIFAHSSNLLRHQR [G10D], the protein stability index was 2.98.

As for EKPYKCPECFEIFAHSSNLLRHQR [G10F], the protein stability index is 2.03. For the variant EKPYKCPECMEIFAHSSNLLRHQR [G10M], the protein stability index came out at 1.91. Regarding EKPYKCPECVEIFAHSSNLLRHQR [G10V], the protein stability index turned out to be 1.78. Under EKPYKCPECHEIFAHSSNLLRHQR [G10H] stands 2.59; under EKPYKCPECKEIFAHSSNLLRHQR [G10K], 2.31; under EKPYKCPECWEIFAHSSNLLRHQR [G10W], 2.14. As to EKPYKCPECCEIFAHSSNLLRHQR [G10C], the protein stability index stood at 1.94. Take EKPYKCPECTEIFAHSSNLLRHQR [G10T]: the protein stability index was 1.92.

Consider EKPYKCPECQEIFAHSSNLLRHQR [G10Q], for which the protein stability index stood at 1.84.

On to EKPYKCPECYEIFAHSSNLLRHQR [G10Y], for which the protein stability index was determined as 1.69.

Regarding EKPYKCPECREIFAHSSNLLRHQR [G10R], the protein stability index came to 2.37.

On to EKPYKCPECIEIFAHSSNLLRHQR [G10I], for which the protein stability index worked out at 1.79. Take EKPYKCPECNEIFAHSSNLLRHQR [G10N]: the protein stability index was 1.58. Under EKPYKCPECLEIFAHSSNLLRHQR [G10L] stands 1.74.

For the variant EKPYKCPECAEIFAHSSNLLRHQR [G10A], the protein stability index amounted to 1.88. With EKPYKCPECPEIFAHSSNLLRHQR [G10P], the protein stability index stood at 2.82. Under EKPYKCPECSEIFAHSSNLLRHQR [G10S] stands 2.12. As for EKPYKCPECGAIFAHSSNLLRHQR [E11A], the protein stability index stood at 2.03.

In the case of EKPYKCPECGMIFAHSSNLLRHQR [E11M], the protein stability index turned out to be 1.72.

On to EKPYKCPECGHIFAHSSNLLRHQR [E11H], for which the protein stability index was determined as 1.89. Under EKPYKCPECGFIFAHSSNLLRHQR [E11F] stands 1.79; under EKPYKCPECGIIFAHSSNLLRHQR [E11I], 2.19.

EKPYKCPECGDIFAHSSNLLRHQR [E11D]: the protein stability index stood at 2.38. Take EKPYKCPECGCIFAHSSNLLRHQR [E11C]: the protein stability index turned out to be 2.25. On to EKPYKCPECGGIFAHSSNLLRHQR [E11G], for which the protein stability index stood at 1.98. Turning to EKPYKCPECGNIFAHSSNLLRHQR [E11N], the protein stability index was determined as 1.73. For the variant EKPYKCPECGLIFAHSSNLLRHQR [E11L], the protein stability index is 1.76. On to EKPYKCPECGKIFAHSSNLLRHQR [E11K], for which the protein stability index was 3.
